Data from the supplement of paper PMC9170038.

System: MS2 coat protein
Assay: apparent KD of MS2 coat protein; designed switch direction (-1 OFF switch, 1 ON switch): -1; higher = weaker reporter binding
Summary of the method: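 For each design, the apparent KD is the median over clusters of curves fitted to normalised cluster fluorescence. Clusters held RNA switches with common flanks, transcribed on Illumina chips by stalled E. coli RNA polymerase. These were titrated with SNAP-549-labelled MS2 coat protein, doubling from 0.7 or 1.5 nM to 3 µM, without input, with 200 uM small-molecule ligand, or with an oligonucleotide input.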

[1] = input ligand: microRNA oligo, concentration not stated
[2] = Eterna round: R95, input ligand: FMN 200 uM
[3] = Eterna round: R95, input ligand: microRNA oligo, concentration not stated
[4] = Eterna round: R95, input ligand: none

Sequence	apparent KD of MS2 coat protein (input ligand: FMN 200 uM)	apparent KD of MS2 coat protein (input ligand: none)	apparent KD of MS2 coat protein [1]	apparent KD of MS2 coat protein [2]	apparent KD of MS2 coat protein [3]	apparent KD of MS2 coat protein [4]
AGUGUGAGGCAGGAUAUGCUAUAUGUAAGUAAUGCAGAAGGGUCUACAUGAGGAUCACCCAUGUGUGCGGUUGA [Ex6 #9] (Eterna round: R97, puzzle: Exclusion 6)	797 nM	116 nM				
UUAAAUCAUGUAGGAUAUGCGUGGCGAAGCUAUGCAGAAGGACAUGAGGAUCACCCAUGUUCAUCCGUCUGCGUACAGAUGGAA [JL Eng1 1.08 mod 1] (Eterna round: R96, puzzle: Exclusion NG 1)	271 nM	28.2 nM	21.6 nM			
AAAUCUCACGUGAGGAUAUCCUGGGCAACGUCCACGGAGAAGGCACAUGAGGAUCACCCAUGUGUUCGCAAUAC [Brourd's mod of Exclusion 4 (MOD2 of Nando's BmEX4 C.1)] (Eterna round: R97, puzzle: Brourd's mod of Exclusion 4)	22.3 nM	17.9 nM				
ACAUGUCAUUGAGGAUAUCGCACACAUGAGGAUCACCCAUGUAAACGGAUGCUCUUUCGUGGGUUCGAGAAGGCGAUGUACAUU [Ex NG2 #96] (Eterna round: R96, puzzle: Exclusion NG 2)	136 nM	88 nM	49 nM			
UUCAGGAGUCGAGGAUAUUUGCAGACGACAUGAGGAUCACCCAUGUGGUUAGCAUAGUCUUCAGCAGAGAAGGCGACCAACGAG [Eternabot solution 20] (Eterna round: R96, puzzle: Exclusion NG 2)	171 nM	40.3 nM	40 nM			
UAGCAUUGCCAAAGGUAGUGCAAAACAUGAGGAUCACCCAUGUAGGAUAUGGUAGGCAAAGCUUACCAGAAGGACAUGAUAAAU [Mat - Exclusion NG 3 - Mod of JL - D18] (Eterna round: R96, puzzle: Exclusion NG 3)	327 nM	54.5 nM	39.7 nM			
GAAAAGGUAGGAUAUACGAAAAGAAAGGGUAGAAAAAAAACACAUGAGGAUCACCCAUGUAGAAGGACCAAAAG [salish99_ex2_r3_027] (puzzle: Exclusion 2)				58.7 nM	26.9 nM	25 nM
CUGGUCCGAGGAUAUAUUAAGUGAUACAUGAGGAUCACCCAUGUUAUUUAAUGGAUAUUAAUAGAAGGCGGACUAG [Mat - Exclusion 5 - JL mod - D77] (puzzle: Exclusion 5)				34.1 nM	28.4 nM	25.5 nM
UUUUUACGAGGAUAUCGAUUGUGGUACAUGAGGAUCACCCAUGUAUGUGAUAUUGUAUUUCGAGAAGGCGUUCAGU [JR_E5_Sub060] (puzzle: Exclusion 5)					21.5 nM	
ACAUGAGGAUCACCCAUGUAAUGAAGGGUACUAUAUUAAACGUAGGAUAUCGAUGUAAGUUUGUUCGAGAAGGACGAUUGCCUU [JR_ExcNG3_Sub053] (Eterna round: R96, puzzle: Exclusion NG 3)	28.1 nM	75.8 nM	38.6 nM			
AAGAAGCUAGGAUAUACAUGAGGAUCACCCAUGUCUCCAUGGUUGACGAGUUCCGCACGUAGAAGGAGCAAAAC [Aerdidima] (Eterna round: R97, puzzle: Exclusion 3)	225 nM	56.7 nM				
ACAUGAGGAUCACCCAUGUGAAAAGAAUGGCUGACACAGAGAUAGGAUAUAGGUGCAUAUCUAACCUAGAAGGGUCAUGACUGG [Deportation 77 - Jieux - Exclusion NG 3] (Eterna round: R96, puzzle: Exclusion NG 3)	23.5 nM	33 nM	22.3 nM			
GACCCUAGGGUCAGACGCACAAGCUUUUUGCUCGUUUUAACAUGAGGAUCACCCAUGUCUAGUGGAUCUGAUCGGGC [Ongege] (puzzle: Sensor v3, turn-off variant 2)				26.3 nM	151 nM	29.5 nM
UCAAGUUUUUUGUUUUUUAACAUGAGGAUCACCCAUGUAUUUUUAUAGUAUGUGUGAAUAAGAUCUCUUUGUCUUAU [JR_SV3TOV1_Sub098] (puzzle: Sensor v3, turn-off variant 1)				46.6 nM	149 nM	49.5 nM
GUUUUAUAUGAAGGAUAUACUUAACAUGAGGAUCACCCAUGUGGUGUUGUGAGUGAGUGAGUUUAGUAGAAGGUCAAUUAUUUU [JMF's solution 33] (Eterna round: R96, puzzle: Exclusion NG 2)	409 nM	184 nM	174 nM			
AGUACUAUCACGAAAGUGAUAGUACAAAUAGCAAGUGAAACAUGAGGAUCACCCAUGUCCUCAUUUGCUCGUCUUAA [Mat - Sensor v2 -ver2- JL mod - D66] (Eterna round: R96, puzzle: Sensor v2, turn-off variant 2)	12.6 nM	14.3 nM	320 nM			

Sequence	apparent KD of MS2 coat protein (input ligand: FMN 200 uM)	apparent KD of MS2 coat protein (input ligand: none)	apparent KD of MS2 coat protein [1]	apparent KD of MS2 coat protein [2]	apparent KD of MS2 coat protein [3]	apparent KD of MS2 coat protein [4]
UGAGUGCGUGUUAGGAUAUGGUUUGGUAUUUCGGGCUAGAAGGGACAUGAGGAUCACCCAUGUAAUUGGCGGGU [-17.2, -16.9 kcal, 22% A] (Eterna round: R97, puzzle: Brourd's mod of Exclusion 4)	259 nM	227 nM				
CUCCUCAUGGCGCCUAAACACAUGAGGAUCACCCAUGUACAGGCUCUUUGCCGUCUUAUAAUAAAACCGAGGAUGCG [Ageusan] (puzzle: Sensor v3, turn-off variant 1)				40.2 nM	219 nM	36.4 nM
AACCUAAUGCGAGGAUAUACUGAGACGUACAGUCGUCAGACAUGAGGAUCACCCAUGUACGCCUCGUAGAAGGCGCGUGACUAA [Bearareus] (Eterna round: R96, puzzle: Exclusion NG 2)	32.6 nM	16.8 nM	13.4 nM			
GGGCUGCGACACAGCCCAACAAAACAUGAGGAUCACCCAUGUCAGGAUAUACCGAUGCAGCAUCUGUAGAAGGGACAGAUCCAA [Usorxe] (Eterna round: R96, puzzle: Exclusion NG 3)	120 nM	66.3 nM	88.1 nM			
GUUCGUGGGCAAGGAUAUCCUACGCUGUUCUGGUUCGUGUCUGUCACAUGAGGAUCACCCAUGUGGGAGAAGGUGCAUUUGGGU [Design 57] (Eterna round: R96, puzzle: Exclusion NG 2)	18.9 nM	20.1 nM	15.1 nM			
UGUUGUCGCGCAGGAUAUGGCCAACAGGCCCUAGGAUAUCGGAAACGAGAAGGAGCGCCAACAGGCGAGAAGGGCGGGACAACU [pwkr exNG2 2xF7 2xFMN.18] (Eterna round: R96, puzzle: Exclusion NG 2)	85.9 nM	995 nM	912 nM			
UUAGUUGGAGGAUAUACGCCGUUUGACAUGAGGAUCACCCAUGUAGAGGCUUAUGUCAAUGUAGAAGGCCGUUUGG [Eternabot (L2) Solution 12] (Eterna round: R97, puzzle: Exclusion 5)	26.3 nM	18.7 nM				
AGGAUGCUAGGAUAUACAGGUUGAAAACUGAUCGGCGCCAGACAUGAGGAUCACCCAUGUAGAAGGAGCGAGGC [EX2 B.26] (Eterna round: R97, puzzle: Exclusion 2)	36.1 nM	38.7 nM				
AAUCAUAGGUAAGGAUAUGAAGAUCUGGUGGUGACAUGAGGAUCACCCAUGUGAAAACGAUGAGAUCAGAAGGUACAAUAUGAA [AK ExNG2-4] (Eterna round: R96, puzzle: Exclusion NG 2)	108 nM	88.3 nM	18 nM			
GAAAACGCAGAGGAUAUUUCAGAUCCUAGCUGCAAAGAAGGCUGCACAUGAGGAUCACCCAUGUGGUCCUGAAA [Quesina mod] (Eterna round: R97, puzzle: Exclusion 6)	116 nM	38.6 nM				
AGUACUAUGCGUGCUGACAUGCGUAGUGCAGCAGGUGUAACAUGAGGAUCACCCAUGUCCUCAUUUGCUCGUCUUAU [Mat - Sensor v3 - Turn-off var 2 - D12] (puzzle: Sensor v3, turn-off variant 2)				116 nM	201 nM	127 nM
ACCGUGUAAGGAUAUCGAGGCCGAGGAAGUCGCAUGGCCUGUGAGAAGGUACAUGAGGAUCACCCAUGUCCCAU [Eternabot (L2) Solution 6] (Eterna round: R97, puzzle: Exclusion 4)	28.7 nM	27.6 nM				
UUUUAACAUGAGGAUCACCCAUGUGAGGAUAUCGAAAUUUAUAUUAAUAUUUUUAAUUCGAGAAGGCACAUUUU [JMF 69] (puzzle: Exclusion 1)					136 nM	
GAGAAGGUAGGAUAUACGAAUAAAUAGGGUAGUAAUAAGACACAUGAGGAUCACCCAUGUAGAAGGACCAAGAG [Mat - Exclusion 2 - Mod of my Tesla design - D38] (puzzle: Exclusion 2)				37 nM	19.3 nM	21.1 nM
UGCCUAUGAGGAUAUACGUAGAAAUAGAUUCAUGUAAAACUACAUGAGGAUCACCCAUGUAGAAGGCAUGGGCU [Mat - Exclusion 2 - JL Mod - D49] (Eterna round: R97, puzzle: Exclusion 2)	27.5 nM	16 nM				
CCAAGCUUAUUCAUUAACAACAUGAGGAUCACCCAUGUAUAGGCAAUUAUGUCUGGGCUCUUUAGUGCUCGUCUUAU [Sensor-V1 #24] (Eterna round: R97, puzzle: Sensor, turn-off variant 1)	18 nM	19.8 nM				
